Results on 167 variants are retold here after the RNAGym collection of RNA variant scans (doi:10.7554/elife.80360).

B1: Hairpin Ribozyme (parent)
chain: GUCCUCUUUCACGUGCGCGUGAAAGAGAGAAGUGAACCAGAGAAACACACGUUGUGGUAUAUUACCUGGUA

Variants of B1 are the subject of this data set. The experiment in a line: self-cleavage, relative activity (ratio to wild type); higher = more cleavage; co-transcriptional.
Take C37G C48U: the self-cleavage stood at 0.144. The figure for C37G U55C is 0.178; for C37G U55A it is 0.226; for A36U A39U it is 0.171. With A36G C65A, the self-cleavage is 0.73. For C37A U70C, the self-cleavage was determined as 0.438. With C37A U70A, the self-cleavage turned out to be 0.368. The figure for C37U A47G is 0.167; for C37U A47U it is 0.177.

In the case of C37G A44U, the self-cleavage turned out to be 0.118.

Regarding C37G A44G, the self-cleavage is 0.185. Consider A36C U62A, for which the self-cleavage is 0.0722. Take C37U G56A: the self-cleavage stood at 0.156. The figure for C37G C38U is 0.128; for A39C C48A it is 0.171; for C38A G68A it is 0.148. The figure for C38U C46U is 0.0928; for C38G G51C it is 0.147; for C37G G57C it is 0.21. The figure for C38G G54A is 0.105; for A36U A61C it is 0.196. Take A39G A49C: the self-cleavage amounted to 0.176.

Turning to A36C G69C, the self-cleavage is 0.304. The figure for A39C A47G is 0.172; for C38U C48U it is 0.174; for C38U C48G it is 0.123. The figure for A36C U63A is 0.0749; for C38A A45C it is 0.234. Consider C37G G42U, for which the self-cleavage worked out at 0.0921.

Consider A36U A49U, for which the self-cleavage was found to be 0.124. The figure for C37U A44C is 0.1; for A39C G68A it is 0.215; for A39C G68U it is 0.229. The figure for A36U C65G is 0.106.

Regarding A39G A64U, the self-cleavage was 0.123. The figure for A39G A64C is 0.174; for C37A G56C it is 0.174. Consider C37A A44U, for which the self-cleavage is 0.109. C37A A44C: the self-cleavage stood at 0.203. Regarding C37A A44G, the self-cleavage was determined as 0.208. The figure for C37A U67C is 0.0944; for C38A A71G it is 0.249.

As for C38G A49U, the self-cleavage was 0.137.

For the variant C37U U52A, the self-cleavage worked out at 0.672. Consider A36C G42C, for which the self-cleavage stood at 0.245. The figure for C38A A49C is 0.11; for C38A A49G it is 0.182; for A36G A43C it is 0.228. The figure for A36G A43U is 0.0504.

Take C38U U55A: the self-cleavage was 0.168. Regarding C37U A39U, the self-cleavage came to 0.208. C38G G40C: the self-cleavage is 0.0961.

As for C37G U62A, the self-cleavage came to 0.153. For A36G U70G, the self-cleavage came out at 1.03. For the variant C37A G51A, the self-cleavage worked out at 0.535. A39C U58G: the self-cleavage came to 0.315.

Regarding A39C U58A, the self-cleavage is 0.231. The figure for C37G U70G is 0.405. The figure for C38G G68C is 0.591. As for A36G A49U, the self-cleavage was 0.204. The figure for C37U G68U is 0.193. On to C37U G68C, for which the self-cleavage turned out to be 0.139. Take A39C U55G: the self-cleavage worked out at 0.205. The figure for C38U G69U is 0.283; for C37G G54C it is 0.149; for A39C G54U it is 0.103. As for C38A A44U, the self-cleavage was 0.118.

C38A A44G: the self-cleavage turned out to be 0.144. On to C38A A64U, for which the self-cleavage was determined as 0.179. The figure for C38A A64C is 0.103. The figure for C38A A64G is 0.108. The figure for C38A U70C is 0.115. Turning to C38A U70G, the self-cleavage was 0.141. With C37U U53C, the self-cleavage turned out to be 0.808. The figure for C38U G54A is 0.269; for A36C G51C it is 0.562; for A39C A43G it is 0.085. Regarding A36G U67C, the self-cleavage was found to be 0.335.

For the variant C38G U60C, the self-cleavage stood at 0.233. The figure for A36U C38G is 0.0875; for A36C C65G it is 0.3. Consider A36G A39C, for which the self-cleavage was determined as 0.218. The figure for C38G G57U is 0.116; for A39C A49G it is 0.208. As for A36U G68A, the self-cleavage was found to be 0.106. The figure for A36U G68C is 0.129; for C37A C65A it is 0.259; for C37A C65U it is 0.261.

As to C38U G57U, the self-cleavage was 0.175. For the variant C37U A61C, the self-cleavage is 0.146. In the case of C37U A61G, the self-cleavage worked out at 0.126. On to C37U A61U, for which the self-cleavage is 0.248.

As for C38A U53C, the self-cleavage is 0.228. Turning to C38A U53A, the self-cleavage was determined as 0.215.

In the case of A36U G42C, the self-cleavage stood at 0.234. The figure for C38G A59C is 0.12; for A39C it is 0.539; for A39G it is 0.299.

Regarding C37A U62G, the self-cleavage turned out to be 0.127. The figure for C38A C48G is 0.122.

As to C38A C48A, the self-cleavage stood at 0.14. For C37A A43C, the self-cleavage was 0.0917.

For the variant C37A A43U, the self-cleavage was found to be 0.15. The figure for A39G A47C is 0.166; for C38A A47C it is 0.146; for C38A A47U it is 0.0951.

As to A36U G54C, the self-cleavage was determined as 0.278. With A36U G54A, the self-cleavage is 0.212. The figure for C38G G42U is 0.172. Turning to C38A A41G, the self-cleavage stood at 0.51.

With C38A A59U, the self-cleavage was 0.134.

Turning to C38A A59G, the self-cleavage stood at 0.118. As to A36G U52C, the self-cleavage is 1.24. With A39C G57A, the self-cleavage turned out to be 0.215.

For C38U C65U, the self-cleavage amounted to 0.12.

Consider A36C U55A, for which the self-cleavage was determined as 0.243. Consider A36C U55G, for which the self-cleavage was determined as 0.174. The figure for C37U A64C is 0.205.

Regarding C37G A61G, the self-cleavage amounted to 0.155. The figure for C37U A45G is 0.0764; for C38G A61G it is 0.166. The figure for C38G A61U is 0.227. As for C38A U67A, the self-cleavage came out at 0.124. As for C38A U67G, the self-cleavage amounted to 0.137. The figure for C37A A39G is 0.181.

With C38U G51U, the self-cleavage came to 0.774.

Consider C38U G51A, for which the self-cleavage is 0.786. For the variant A39C U53G, the self-cleavage was found to be 0.207. Consider C38A A61G, for which the self-cleavage is 0.258. The figure for C38A A61C is 0.174. The figure for C38U U67C is 0.121. For the variant C37U G51C, the self-cleavage amounted to 0.689. The figure for C37U G51A is 0.967; for C38U A64G it is 0.306; for C38U A64C it is 0.233. In the case of C38U G68A, the self-cleavage was determined as 0.931. With C38U G68U, the self-cleavage was determined as 0.605. Take C37G G51C: the self-cleavage was found to be 0.469.

As to A39C C50A, the self-cleavage was determined as 0.165. The figure for A39C C50G is 0.0993; for A39C G40A it is 0.112; for A39C G40U it is 0.0957. The figure for A36U C48A is 0.0449. The figure for A39C A59U is 0.172; for A39C A59C it is 0.114. With A39C A59G, the self-cleavage is 0.126.

On to C38U A45U, for which the self-cleavage worked out at 0.113.

With A36U U63A, the self-cleavage was 0.207.

For A36U U63G, the self-cleavage is 0.165. The figure for A36U U63C is 0.172; for A36U A64U it is 0.165.

In the case of C38G A71G, the self-cleavage turned out to be 0.172.

Consider C38G A71U, for which the self-cleavage came to 0.138. In the case of A36C G57U, the self-cleavage was 0.264. The figure for C37A A59U is 0.0631; for C37A A59C it is 0.137. Take C37A A59G: the self-cleavage was 0.241. The figure for A36G C38G is 0.127. Take C37A C38G: the self-cleavage was determined as 0.31.

For the variant A36G U55G, the self-cleavage was 0.271. The figure for A36G U55C is 0.324; for C37U G40A it is 0.183. The figure for C37U G40U is 0.178.

On to C37A U55C, for which the self-cleavage came to 0.1. The figure for C37A U60C is 0.337. The figure for A39C U52G is 0.267.

For A36U U62C, the self-cleavage worked out at 0.185.
